In article PMC4652764, “The La-related protein 1-specific domain repurposes HEAT-like repeats to directly bind a 5′TOP sequence”:

Key:
LARP1 DM15 region [1] = target: T1, LARP1 DM15 region (human, UniProt Q6PKG0 873-1023); assay: EMSA; up to 30 uM protein; EMSA: 20 mM Tris-HCl pH 8, 150 mM NaCl, 10% glycerol, 1 mM DTT, 0.5 ug tRNA, 1 ug BSA, <2 nM RNA, 30 min on ice, native 0.5x TBE gel at 4 C; conditions: protein: recombinant; tags: His6-MBP removed by TEV; glycine linker remnant; label: 5'-32P
LARP1 DM15 region [2] = target: T1, LARP1 DM15 region; assay: EMSA; no specific binding; EMSA: 20 mM Tris-HCl pH 8, 150 mM NaCl, 10% glycerol, 1 mM DTT, 0.5 ug tRNA, 1 ug BSA, <2 nM RNA, 30 min on ice, native 0.5x TBE gel at 4 C; conditions: protein: recombinant; tags: His6-MBP removed by TEV; glycine linker remnant; label: 5'-32P
LARP1 DM15 region [3] = target: T1, LARP1 DM15 region; assay: EMSA; EMSA: 20 mM Tris-HCl pH 8, 150 mM NaCl, 10% glycerol, 1 mM DTT, 0.5 ug tRNA, 1 ug BSA, <2 nM RNA, 30 min on ice, native 0.5x TBE gel at 4 C; conditions: protein: recombinant; tags: His6-MBP removed by TEV; glycine linker remnant; label: 5'-32P
LARP1 DM15 region [4] = target: T1, LARP1 DM15 region; assay: EMSA; two concentration-dependent complexes; EMSA: 20 mM Tris-HCl pH 8, 150 mM NaCl, 10% glycerol, 1 mM DTT, 0.5 ug tRNA, 1 ug BSA, <2 nM RNA, 30 min on ice, native 0.5x TBE gel at 4 C; conditions: protein: recombinant; tags: His6-MBP removed by TEV; glycine linker remnant; label: 5'-32P
LARP1 DM15 region [5] = target: T1, LARP1 DM15 region; assay: EMSA; tRNA and BSA competitors; ~500 nM when corrected for active protein; EMSA: 20 mM Tris-HCl pH 8, 150 mM NaCl, 10% glycerol, 1 mM DTT, 0.5 ug tRNA, 1 ug BSA, <2 nM RNA, 30 min on ice, native 0.5x TBE gel at 4 C; conditions: protein: recombinant; tags: His6-MBP removed by TEV; glycine linker remnant; label: 5'-32P (EMSA, probing)

GUGGCGCCUCGGAGGCGUUCAGCUGCUUCAAG (ssRNA) [RPS6 deltaTOP]
binding result (LARP1 DM15 region [1]): no binding

UUUUUUUUUUUUUUUU (ssRNA) [U16]
binding result (LARP1 DM15 region [2]): no binding

CCCCUUCUCCCCGGCGGUUA (ssRNA) [PABPC1 5'TOP 20mer]
binding result (LARP1 DM15 region [3]): no binding

CACUUCUGCCGCCCCU (ssRNA) [RPL13A 5'TOP 16mer]
binding result (LARP1 DM15 region [3]): no binding

AAAAAAAAAAAAAAAA (ssRNA) [A16]
binding result (LARP1 DM15 region [2]): no binding

CCUCUUUUCCGUGGCGCCUCGGAGGCGUUCAGCUGCUUCAAG (ssRNA) [RPS6-42mer]
binding result (LARP1 DM15 region [4]): binds

CCUCUUUUCCGUGGCGCCUC (ssRNA) [RPS6-20mer]
Kd (LARP1 DM15 region [5]): 776 ± 26 nM

CCUCUUUU (ssRNA) [RPS6 first 8 nt]
binding result (LARP1 DM15 region [3]): no binding

CCUCUUUUCCG (ssRNA) [RPS6 first 11 nt]
binding result (LARP1 DM15 region [3]): no binding
